In patent US7470669B2, “Isolated polypeptide comprising a leptin fragment” (Serono Genetics Institute, S.A., priority 1999, dated 2008):

B1: Lactoferrin: a milk protein that inhibits the removal of dietary lipid by the liver; inhibitor of LSR (protein, UniProt P02788 20-710, looked up)
Lactotransferrin: GRRRSVQWCAVSQPEATKCFQWQRNMRKVRGPPVSCIKRDSPIQCIQAIAENRADAVTLDGGFIYEAGLAPYKLRPVAAEVYGTERQPRTHYYAVAVVKKGGSFQLNELQGLKSCHTGLRRTAGWNVPIGTLRPFLNWTGPPEPIEAAVARFFSASCVPGADKGQFPNLCRLCAGTGENKCAFSSQEPYFSYSGAFKCLRDGAGDVAFIRESTVFEDLSDEAERDEYELLCPDNTRKPVDKFKDCHLARVPSHAVVARSVNGKEDAIWNLLRQAQEKFGKDKSPKFQLFGSPSGQKDLLFKDSAIGFSRVPPRIDSGLYLGSGYFTAIQNLRKSEEEVAARRARVVWCAVGEQELRKCNQWSGLSEGSVTCSSASTTEDCIALVLKGEADAMSLDGGYVYTAGKCGLVPVLAENYKSQQSSDPDPNCVDRPVEGYLAVAVVRRSDTSLTWNSVKGKKSCHTAVDRTAGWNIPMGLLFNQTGSCKFDEYFSQSCAPGSDPRSNLCALCIGDEQGENKCVPNSNERYYGYTGAFRCLAENAGDVAFVKDVTVLQNTDGNNNEAWAKDLKLADFALLCLDGKRKPVTEARSCHLAMAPNHAVVSRMDKVERLKQVLLHQQAKFGRNGSDCPDKFCLFQSETKNLLFNDNTECLARLHGKTTYEKYLGPQYVAGITNLKKCSTSPLLEACEFLRK
B2: C-terminal portion from AA 353 to 541: truncated human LSR construct, AA 353 to 541 (protein, UniProt Q86X29 353-541, looked up, fragment)
chain: PGGYPGDVDRSSSAGGQGSYVPLLRDTDSSVASEVRSGYRIQASQQDDSMRVLYYMEKELANFDPSRPGPPSGRVERAMSEVTSLHEDDWRSRPSRGPALTPIRDEEWGGHSPRSPRGWDQEPAREQAGGGWRARRPRARSVDALDDLTPPSTAESGSRSPTSNGGRSRAYMPPRSRSRDDLYDQDDSR

Experiments:
ob/ob mice = test: Postprandial plasma TG response after high-fat test meal in ob/ob mice; type: in vivo, mouse; conditions: i.v. 0.5 μg recombinant mouse leptin and/or 2.5 mg lactoferrin, mean ± SD
Procedure: FIGS. 11A and 11B show the effect of mouse leptin (FIG. 11A) or leptin peptide (FIG. 11B) on postprandial plasma TG response in ob/ob mice. […] Postprandial triglyceridemia was measured as described previously. Each point represents the mean±SEM (A: saline, n=8, leptin, n=7; leptin peptide: saline, n=8, leptin, n=8). […] Primary cultures of rat hepatocytes were incubated 30 min at 37° C. with increasing concentrations of mouse leptin peptide. Oleate (0.5 mM) and ^125I-LDL (20 μg/mL) were added and the cells were incubated 2 h at 37° C. After washing, the amount of 125I-LDL bound to the cell surface was measured as described in the Examples section herein.
Mice that were fasted for 2-3 hours were gavage-fed 300 μL of a test meal consisting of 60% fat (37% saturated, 27% mono-, and 36% polyunsaturated fatty acids), 20% protein and 20% carbohydrate, and providing 56 kcal of energy/kg (1.5 g butter, 1.5 g sunflower oil, 2.5 g nonfat dry milk, 2.5 g sucrose and 3 ml water). […] TG concentrations were determined using a commercially available enzymatic kit with controls included in each assay (Precinorm L, Roche-Boehringer Mannheim; Lyotrol N, BioMérieux).
The inhibition of the intestinal absorption of dietary lipids by leptin was also investigated. […] Blood samples were taken at 2 and 3 h after the test meal, and plasma TG concentrations were measured (see Table, below). […]

[1] = tested on: bovine brain capillary endothelial cells; test: Leptin transcytosis in blood-brain barrier in vitro model; type: cell-based; conditions: 10 ng/mL 125I-leptin + 2 mg/mL lactoferrin
Procedure: Cells were incubated with ^125I-leptin alone (10,000 dpm/ng) (closed squares), with 1 μg/mL unlabelled leptin (triangles), 50 μg/mL MP (circles), 50 μg/mL HP (open squares), or 2 mg/mL lactoferrin (asterisks).
Human leptin transport through the blood-brain barrier (BBB) is studied using an in vitro model (Dehouck, et al J Neurochem 54:1798-801, 1990 hereby incorporated herein by reference in its entirety including any figures, tables, or drawings). This model closely mimics the in vivo situation with regard to the selective passage of nutrients and drugs through the cerebro-vascular endothelium. […] Briefly, this model consists of a co-culture of bovine brain capillary endothelial cells (ECs) and rat astrocytes (FIG. 31). The astrocytes are seeded on the plastic of a six-well dish and grown for 3 weeks. […]
Leptin transcytosis: Experiments were performed on brain capillary endothelial cells in coculture with astrocytes for 16 days. […] At the end of the experiment, the amount of radioactivity of each well was counted. […]
The transport of molecules through the endothelial monolayer was determined for each time point as % passage: % passage of radiolabelled molecule through the endothelium: dpm found in the lower compartment at a time point divided by the initial dpm found in the upper compartment: % transport at 30 min=(lower dpm t30/upper dpm)*100.

LSR = test: BUD assay of 125I-LDL in PLC cells transfected with truncated human LSR; type: cell-based; conditions: corrected for total protein, depending on oleate concentration
Source text: Method of Cloning & Testing. • 1. Digest Human LSR plasmids with enzymes of interest under appropriate conditions. Separate the appropriate insert fragment from the vector using agarose gel electrophoresis and Qiaquick gel extraction columns. Note: For constructs 1, 2, 3, 4a, 5, and 6 pTracerCMV2 LSR α was used as the source for the insert. For construct 4b, pTracerCMV2 LSR α′ was used as the source for the insert. For 4c, pTracerCMV2 LSR β was used as the source for the insert. • 2. Digest the pcDNA/HisMax vector in the appropriate reading frame with the enzymes of interest. Purify using agarose gel electrophoresis and Qiaquick gel extraction columns. • 3. If necessary, treat insert fragments with Klenow DNA polymerase or T4 DNA polymerase I to blunt 3′ overhangs. […] Verify correct clones by having them sequenced to ensure that they are in the proper reading frame and that there are no amino acid changes. • 8. […]
BUD Assay Methods: • 1. […] Remove suramin into gamma counter tubes, and count for radioactivity. […] Recover the cell lysates into gamma counter tubes and count for radioactivity. […] After cell lysates have been counted, determine the protein concentration per mL so that data can be reported as ng ^125I-LDL bound/mg of total protein. Protein is determined using the BCA assay from Pierce according to the manufacturer's instructions. […]

Molecule	Plasma TG 2-3 hours after test meal (ob/ob mice)	amount of leptin transported [1]	increase in LDL metabolism (LSR) [fold]
B1	2.02 ± 0.26^¶ mg/mL	significantly inhibited	
B2			~2
